Assay results from publication PMC8239462 (2021).

B1: RAP (commercial; R&D, 4296-LR) (natural protein)
chain: YSREKNQPKPSPKRESGEEFRMEKLNQLWEKAQRLHLPPVRLAELHADLKIQERDELAWKKLKLDGLDEDGEKEARLIRNLNVILAKYGLDGKKDARQVTSNSLSGTQEDGLDDPRLEKLWHKAKTSGKFSGEELDKLWREFLHHKEKVHEYNVLLETLSRTEEIHENVISPSDLSDIKGSVLHSRHTELKEKLRSINQGLDRLRRVSHQGYSTEAEFEEPRVIDLWDLAQSANLTDKELEAFREELKHFEAKIEKHNHYQKQLEIAHEKLRHAESVGDGERVSRSREKHALLEGRTKELGYTVKKHLQDLSGRISRARHNEL
modifications: Limits by convention: cluster IV = CR.21-31 (LDL-receptor class A repeats 21-31); vendor limits are not printed. Likely supplied as an Fc chimera, as for commercial cluster II (Fc omitted; may be a dimer). Ca2+-bound, three disulfides per CR.
B2: RAP (commercial; R&D, 4296-LR) (natural protein)
chain: YSREKNQPKPSPKRESGEEFRMEKLNQLWEKAQRLHLPPVRLAELHADLKIQERDELAWKKLKLDGLDEDGEKEARLIRNLNVILAKYGLDGKKDARQVTSNSLSGTQEDGLDDPRLEKLWHKAKTSGKFSGEELDKLWREFLHHKEKVHEYNVLLETLSRTEEIHENVISPSDLSDIKGSVLHSRHTELKEKLRSINQGLDRLRRVSHQGYSTEAEFEEPRVIDLWDLAQSANLTDKELEAFREELKHFEAKIEKHNHYQKQLEIAHEKLRHAESVGDGERVSRSREKHALLEGRTKELGYTVKKHLQDLSGRISRARHNEL

Experiments:
[1] = target: LRP1 Cluster IV (commercial) (Homo sapiens); test: SPR
LRP1 CR.7 singlet [2] = target: T1, LRP1 CR.7 singlet (human, UniProt Q07954 1013-1053); test: SPR; CR.7 expressed with RAP (RAP+)
LRP1 CR.7 singlet [3] = target: T1, LRP1 CR.7 singlet; test: SPR; CR.7 expressed without RAP (RAP-)
[4] = target: T2, vLDLR CR cluster (8 CRs), recombinant, secreted from Sf9 cells (human, UniProt P98155 28-355); test: SPR; vLDLR cluster expressed with RAP (RAP+)
[5] = target: T2, vLDLR CR cluster (8 CRs), recombinant, …; test: SPR; vLDLR cluster expressed without RAP (RAP-)

T1 sequence (Q07954 1013-1053): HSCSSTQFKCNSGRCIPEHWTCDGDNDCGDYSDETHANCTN
Chain of LRP1 Cluster IV (commercial) (Homo sapiens) (chain, as listed by the source): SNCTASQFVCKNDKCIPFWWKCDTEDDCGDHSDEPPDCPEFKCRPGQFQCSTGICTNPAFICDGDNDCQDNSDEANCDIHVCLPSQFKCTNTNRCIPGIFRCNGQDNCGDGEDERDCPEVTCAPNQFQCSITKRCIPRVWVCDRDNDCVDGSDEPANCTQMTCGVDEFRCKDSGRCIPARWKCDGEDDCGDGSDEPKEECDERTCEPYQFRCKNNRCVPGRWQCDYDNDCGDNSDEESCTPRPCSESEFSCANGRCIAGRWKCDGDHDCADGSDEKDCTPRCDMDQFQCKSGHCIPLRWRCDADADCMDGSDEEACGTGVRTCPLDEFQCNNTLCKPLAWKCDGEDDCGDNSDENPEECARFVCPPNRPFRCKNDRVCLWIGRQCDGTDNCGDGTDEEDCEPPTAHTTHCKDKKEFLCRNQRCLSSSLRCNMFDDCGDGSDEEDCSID

| Binder | Kd [1] [nM] | Kd (LRP1 CR.7 singlet [2]) [nM] | Kd (LRP1 CR.7 singlet [3]) [nM] | Kd [4] [nM] | Kd [5] [nM] |
| --- | --- | --- | --- | --- | --- |
| B1 | ~2.5 |  |  |  |  |
| B2 |  | 37.6 | 67.9 | ~1.6 | ~1.7 |
